The labels stand for the following.
B2: His-MBP-RIPK3 (388–514) (domain or fragment)
chain: SSDSMAQPPQTPETSTFRNQMPSPTSTGTPSPGPRGNQGAERQGMNWSCRTPEPNPVTGRPLVNIYNCSGVQVGDNNYLTMQQTTALPTWGLAPSGKGRGLQHPPPVGSQEGPKDPEAWSRPQGWYN

Experiment [1] deals with B2. The experiment is described as follows: pull-down.
Experiment [2] deals with MBP-MYC (1–144) (UniProt P01106-1 1-144). The experiment is described as follows: pull-down.
Sequence of MBP-MYC (1–144) (P01106 16-159): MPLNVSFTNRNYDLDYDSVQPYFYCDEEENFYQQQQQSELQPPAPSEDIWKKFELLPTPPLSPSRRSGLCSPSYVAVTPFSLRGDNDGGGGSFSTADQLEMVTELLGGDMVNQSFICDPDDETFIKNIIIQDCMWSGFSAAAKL

B1: recombinant MBP-RIPK1 RHIM domain (496–583) (domain or fragment)
chain: HMPSLHNIPVPETNYLGNTPTMPFSSLPPTDESIKYTIYNSTGIQIGAYNYMEIGGTSSSLLDSTNTNFKEEPAAKYQAIFDNTTSLT
In the case of B1, the binding result in experiment [1] is “binds”.

Consider B2, for which the binding result in experiment [2] is given as “binds”.

Source of the values: article PMC7443878 (Proceedings of the National Academy of Sciences of the …, 2020).
